Experiment [1] has as its system heat inactivated S. aureus induced peritonitis. Nature of the experiment: S. aureus mouse model of peritonitis. It counts as in vivo. Here is the method: Induction of Peritonitis: Four-six week old female BALB/c mice were used. […] For determination of HMG1 levels on day 0 approximately 10^9 heat inactivated S. aureus (strain 8325-4) cells premixed with 20 mg of galactosamine or galactosamine alone in a 200 μl volume of PBS was administered i.p. A third group of animals was not challenged. Animals were euthanized at 2, 8, and 12 hours after challenge by CO2 inhalation and blood was collected by cardiac puncture. For the antibody treatment studies on day 0 approximately 10^9 heat inactivated S. aureus (strain 8325-4) cells premixed with 20 mg of galactosamine were administered i.p. in a 200 μl volume and the following treatments were administered i.p. in a 100 μl volume 30 minutes prior to challenge as shown in Table 7.
The animals were also weighed 2× weekly. Animals showing signs of significant morbidity were euthanized. On day 15 all surviving animals were euthanized (euthanized sooner if significant morbidity observed).

Experiment [2] addresses T1, native (thymus) HMG1 binding to RAGE/Fc (Bos taurus, UniProt P10103).
T1 construct: from tissue; host or cells: bovine (calf) thymus
T1 sequence (P10103 2-215 limits assumed): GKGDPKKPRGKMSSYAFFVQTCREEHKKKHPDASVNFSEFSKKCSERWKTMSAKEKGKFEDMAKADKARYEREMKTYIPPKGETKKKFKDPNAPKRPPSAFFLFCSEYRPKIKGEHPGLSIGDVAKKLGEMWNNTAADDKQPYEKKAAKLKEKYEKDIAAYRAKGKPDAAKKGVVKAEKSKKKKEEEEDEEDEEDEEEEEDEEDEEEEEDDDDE
In words: Inhibition of native HMG1 binding to Rage-Fc (ELISA). Further details: species or system bovine. The following applies: at the concentrations tested. Here is the method: Inhibition of Native HMG1 Binding to Rage-Fc: Recombinant RAGE/Fc was coated on ELISA plate at 5 μg/mL, 0.1 mL/well. HMGB1 (0.5 μg/mL) was pre-incubated with anti-HMGB1 mAb clone E-11 or G-4 at different concentrations for 0.5 hr. After blocking the plate, anti-HMGB1 mAb pre-incubated HMGB1 was added to RAGE/Fc coated plate for 2 hr. RAGE bound HMGB1 was detected with Biotin labeled anti-HMGB1 pAb.
On the technique in general: An ELISA detects its analyte on a solid surface through an enzyme-linked reagent.

Experiment [3] relates to CpG2216+thymus HMG1 induced IFN-a release (TLR9 signaling). In words: Inhibition of HMG1 mediated enhancement of TLR9 signaling, CpG2216 + thymus HMG1 in bone marrow cells. The format is cell-based. The settings on record: mouse bone marrow cells. As for the experimental part: HMGB1+TLR Ligand: Freshly isolated bone marrow cells were stimulated with TLR ligands (TLR3:PolyIC@5 μg/mL; TLR4:LPS@2.5 ng/mL; TLR5:flagellin@0.25 μg/mL; TLR7:polyU@4 μg/mL or R837@5 μg/mL; TLR9:CpG2216@1 μM) with or without presence of thymus HMGB1 (10 μg/mL) for 24 hr. Cytokines in the supernatant were measured by ELISA.
Inhibition of HMG1 Mediated Enhancement of TLR Signaling: Freshly isolated bone marrow cells were stimulated with TLR9 ligand CpG2216 (0.3 μM) and thymus HMGB1 (10 μg/mL) in the presence of different concentration of the anti-HMGB1 mAb E11 or control human IgG for 24 hr and IFN-a in the supernatant was measured by ELISA. CpG2216, HMGB1 and nonstimulatory DNA were used alone or in combination as controls for the assay.

Another experiment has as its target T2, HMGB-1 (Homo sapiens, UniProt P09429).
T2 sequence (P09429 1-215): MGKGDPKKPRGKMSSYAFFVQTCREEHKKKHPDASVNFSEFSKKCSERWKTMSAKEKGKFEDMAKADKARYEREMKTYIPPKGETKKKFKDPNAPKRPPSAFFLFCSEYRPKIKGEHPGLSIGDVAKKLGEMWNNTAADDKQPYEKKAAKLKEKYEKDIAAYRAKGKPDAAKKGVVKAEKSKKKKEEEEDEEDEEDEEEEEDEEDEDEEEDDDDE
In words: Antibody HMG1 binding competition via BIAcore analysis. Here is the method:
Antibody HMG1 Binding Competition via BIAcore Analysis: All experiments were performed on a BIAcore 3000 instrument (BIAcore, Inc., Piscataway, N.J.). The HMGB-1 protein was immobilized onto a CM5 sensor using a standard amine coupling chemistry protocol, as described in the BIAcore Handbook (BIAcore, Inc., Piscataway, N.J.). Briefly, the CM5 surface subject to the NHS/EDC activation. After activation a HMGB-1 was injected over the surface at a concentration of 100 nM or 200 nM (in 10 mM NaOAc, pH4) to a surface density of between 1100 and 1200 RU's. Following this, unreacted sites on the sensor chip surface were “capped” with an injection of 1M ethanolamine. For reference purposes, a blank flow cell was also prepared, utilizing this same procedure that was used to immobilize HMGB-1, but without any ligand.
MAbs G2, G4, G9, S6 and Synagis were prepared at 1 uM and 2 uM. All mAb solutions were prepared in HBS-EP buffer (BIAcore, Inc., Piscataway, N.J.). Each cycle started with a 100 μL injection of the first mAb, injected at 1 μM, followed by a second 100 μL injection of a 1:1 mixture of two, 2× concentration mAbs, such that the final concentration of each component mAb in the mixture is equivalent to the first injection. […]
Once the entire set had been collected, the maximum RU responses for each mAb after each injection cycle was recorded. […]

Entries after “also recorded” stand apart in the source; their conditions may differ.

B1: E11: human anti-HMG1 antibody, recognizes HMG1 A-Box; VL/VH aa SEQ ID NO: 24/26 (antibody, listed as Homo sapiens, V domains shown)
VH: EVQLLESGGGLVQPGGSLRLSCAASGFTFSRYQMNWVRQAPGKGLEWVSSISPSGGHTHYADSVKGRFTISRDNSKNTLYLQMNSLRAEDTAVYYCAKDGRQGKISTVDHWGQGTLVTVSS
VL: AQDIQMTQSPGTLSLSPGERATLSCRASQSVRSNFLAWYQQKPGQAPRLLIYGASRRASGIPDRFSGSGFGADFTLSISRLEPEDFAVYYCQQYGSSPNTFGQGSRVEIK
Turning to B1, the mice survived in experiment [1] (lethal dose of heat inactivated S. aureus) is given as 8%. Moreover, the “in vivo S. aureus” value in experiment [1] (percent protection, isotype control subtracted) is 8%. In experiment [2], the “block of native (thymus) HMG1 binding to RAGE” value is on record as “significant ability to block the binding of native HMG1 to RAGE; also recorded: can block native HMG1 binding”. For the same molecule, in experiment [3], the “inhibition of IFN-a release induced by CpG + thymus HMG1” value was “could be blocked; also recorded: inhibited the release of INF-a induced by CpG2216+thymus HMG1” and the “inhibition of IFN-a release induced by CpG alone” value was “not blocked; also recorded: Neither E11, G4 or Rage/Fc inhibited”.

B2: G9: human anti-HMG1 antibody; VL/VH aa SEQ ID NO: 34/36 (antibody, listed as Homo sapiens, V domains shown)
VH: EVQLLESGGGLVQPGGSLRLSCAASGFTFSSYDMFWVRQAPGKGLEWVSRISPSGGYTYYADSVKGRFTISRDNSKNTLYLQMNSLRAEDTAVYYCARLRYFDSRGYAFDIWGQGTMVTVSS
VL: AQDIQMTQSPGTLSLSPGERATLSCRASQSVRSSYLAWYQQKPGQAPRLLIYGASTRATGIPDRFSGSGSGTDFTLTISRLEPEDFAVYYCQQYGTSRWTFGQGTKVEIK
For the molecule B2, in the experiment with HMGB-1, the “binding sites on HMGB1 by BIAcore competition” value is listed as “bind to either the same site or sites that are highly related perhaps overlapping”.

The record behind these values is patent US20080311122A1, “Antagonists of Hmgb1 and/or Rage and Methods of Use Thereof” (Medimmune, LLC, priority 2005, published 2008).
